In paper doi:10.1101/2024.05.05.592584 (bioRxiv, 2024):

Tests used:
Assay in all cases: BLI
Details in all cases: both partners purified
[1] = target: T1, SARS-CoV-2 BA.1 NTD (SARS-CoV-2 Omicron BA.1, strain)
T1 chain: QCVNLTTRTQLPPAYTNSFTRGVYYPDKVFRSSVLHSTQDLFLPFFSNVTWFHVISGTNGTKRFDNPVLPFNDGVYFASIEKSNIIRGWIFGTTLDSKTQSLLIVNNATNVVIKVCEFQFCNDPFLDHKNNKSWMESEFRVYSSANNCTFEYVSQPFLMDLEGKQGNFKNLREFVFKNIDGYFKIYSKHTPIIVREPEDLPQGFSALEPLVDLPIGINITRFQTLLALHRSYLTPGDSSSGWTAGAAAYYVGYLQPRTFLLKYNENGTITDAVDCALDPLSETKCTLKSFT

[2] = target: T2, SARS-CoV-2 BA.2.75.2 NTD (SARS-CoV-2 Omicron BA.2.75.2, strain)
T2 chain: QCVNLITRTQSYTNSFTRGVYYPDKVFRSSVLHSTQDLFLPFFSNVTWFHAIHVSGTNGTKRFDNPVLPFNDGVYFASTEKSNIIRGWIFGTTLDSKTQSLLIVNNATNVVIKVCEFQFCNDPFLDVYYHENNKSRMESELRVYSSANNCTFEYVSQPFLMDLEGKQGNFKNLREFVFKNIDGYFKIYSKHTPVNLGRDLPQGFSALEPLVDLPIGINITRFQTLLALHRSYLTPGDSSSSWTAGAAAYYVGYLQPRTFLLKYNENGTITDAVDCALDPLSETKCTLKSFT

[3] = target: T3, SARS-CoV-2 BA.4/BA.5 NTD (SARS-CoV-2 Omicron BA.4/BA.5, strain)
T3 chain: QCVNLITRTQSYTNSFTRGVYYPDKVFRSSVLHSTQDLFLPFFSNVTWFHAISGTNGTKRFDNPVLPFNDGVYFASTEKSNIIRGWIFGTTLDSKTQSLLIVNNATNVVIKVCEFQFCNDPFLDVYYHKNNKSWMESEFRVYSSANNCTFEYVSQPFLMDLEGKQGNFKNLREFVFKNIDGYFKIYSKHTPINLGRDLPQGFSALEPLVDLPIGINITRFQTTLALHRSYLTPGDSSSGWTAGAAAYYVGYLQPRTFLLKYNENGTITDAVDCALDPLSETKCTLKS

[4] = target: T4, SARS-CoV-2 B.1.617.2 (Delta) NTD (SARS-CoV-2 B.1.617.2 (Delta), strain)
T4 chain: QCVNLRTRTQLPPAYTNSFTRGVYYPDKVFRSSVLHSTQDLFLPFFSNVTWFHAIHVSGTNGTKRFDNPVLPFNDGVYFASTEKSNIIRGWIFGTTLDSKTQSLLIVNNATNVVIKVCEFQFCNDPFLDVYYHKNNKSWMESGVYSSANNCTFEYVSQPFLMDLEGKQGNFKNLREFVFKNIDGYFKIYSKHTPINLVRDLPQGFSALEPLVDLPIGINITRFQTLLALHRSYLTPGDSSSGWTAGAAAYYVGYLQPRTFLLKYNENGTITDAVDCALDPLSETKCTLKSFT

[5] = target: T5, SARS-CoV-2 P.1 (Gamma) NTD (SARS-CoV-2 P.1 (Gamma), strain)
T5 chain: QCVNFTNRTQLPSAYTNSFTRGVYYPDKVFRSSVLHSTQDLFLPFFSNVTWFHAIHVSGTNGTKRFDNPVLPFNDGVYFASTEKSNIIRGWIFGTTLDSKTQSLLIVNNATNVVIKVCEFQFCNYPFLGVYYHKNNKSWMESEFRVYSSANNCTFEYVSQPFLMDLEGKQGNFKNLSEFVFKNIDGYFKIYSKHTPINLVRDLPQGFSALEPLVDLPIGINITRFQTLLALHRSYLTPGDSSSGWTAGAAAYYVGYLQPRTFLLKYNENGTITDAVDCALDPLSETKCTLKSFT

[6] = target: T6, SARS-CoV-2 BA.2 NTD (SARS-CoV-2 Omicron BA.2, strain)
T6 chain: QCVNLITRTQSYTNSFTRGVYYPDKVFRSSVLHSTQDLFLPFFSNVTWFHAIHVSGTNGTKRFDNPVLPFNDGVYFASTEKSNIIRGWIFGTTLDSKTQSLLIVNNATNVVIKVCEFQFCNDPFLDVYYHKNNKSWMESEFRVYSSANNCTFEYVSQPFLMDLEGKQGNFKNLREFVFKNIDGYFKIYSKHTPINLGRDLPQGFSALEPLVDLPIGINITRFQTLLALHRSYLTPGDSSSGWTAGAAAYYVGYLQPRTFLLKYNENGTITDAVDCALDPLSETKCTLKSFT

[7] = target: T7, SARS-CoV-2 XBB.1.5 NTD (SARS-CoV-2 Omicron XBB.1.5, strain)
T7 chain: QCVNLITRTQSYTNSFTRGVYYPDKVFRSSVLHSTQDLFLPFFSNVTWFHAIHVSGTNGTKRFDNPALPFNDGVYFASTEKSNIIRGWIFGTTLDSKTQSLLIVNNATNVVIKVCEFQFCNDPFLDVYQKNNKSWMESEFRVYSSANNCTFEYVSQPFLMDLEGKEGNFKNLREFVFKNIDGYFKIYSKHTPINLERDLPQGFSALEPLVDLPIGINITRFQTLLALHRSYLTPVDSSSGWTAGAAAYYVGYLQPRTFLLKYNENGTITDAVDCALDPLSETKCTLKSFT

[8] = target: T8, SARS-CoV-2 XBB.1.16 NTD (SARS-CoV-2 Omicron XBB.1.16, strain)
T8 chain: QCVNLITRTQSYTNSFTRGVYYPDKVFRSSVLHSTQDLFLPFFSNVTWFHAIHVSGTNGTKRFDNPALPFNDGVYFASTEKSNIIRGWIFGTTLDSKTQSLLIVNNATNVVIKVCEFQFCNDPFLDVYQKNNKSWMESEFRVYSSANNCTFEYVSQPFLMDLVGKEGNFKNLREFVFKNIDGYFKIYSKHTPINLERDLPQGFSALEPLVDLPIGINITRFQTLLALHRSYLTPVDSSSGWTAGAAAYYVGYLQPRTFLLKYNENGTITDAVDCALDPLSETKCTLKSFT

[9] = target: T9, SARS-CoV-2 EG.5.1 NTD (SARS-CoV-2 Omicron EG.5.1, strain)
T9 chain: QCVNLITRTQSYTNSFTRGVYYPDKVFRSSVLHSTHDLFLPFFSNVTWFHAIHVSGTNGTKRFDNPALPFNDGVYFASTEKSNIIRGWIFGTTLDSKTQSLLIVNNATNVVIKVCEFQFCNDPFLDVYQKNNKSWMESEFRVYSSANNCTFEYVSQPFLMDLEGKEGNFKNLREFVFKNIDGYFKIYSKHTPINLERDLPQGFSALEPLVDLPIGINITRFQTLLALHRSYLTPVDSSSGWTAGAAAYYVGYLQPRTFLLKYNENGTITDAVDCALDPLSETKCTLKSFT

[10] = target: SARS-CoV-2 HV.1 RBD (SARS-CoV-2 Omicron HV.1, strain)
[11] = target: SARS-CoV-2 BA.4/BA.5 RBD (SARS-CoV-2 Omicron BA.4/BA.5, strain)
[12] = target: SARS-CoV-2 XBB.1.5 RBD (SARS-CoV-2 Omicron XBB.1.5, strain)
[13] = target: SARS-CoV-2 EG.5.1 RBD (SARS-CoV-2 Omicron EG.5.1, strain)

B1: C1520 IgG (antibody, V domains shown)
VH: EVQLVESGGGLVQPGGSLRLACVASGFTFSIYEMNWVRQAPGKGLEWVSYITTSGHARYNADSVKGRFTISRDNSKNSFYLQMNSLRAEDTAIYYCARPQYHYYDTSTYHSYGFDIWGQGTMVTVSS
VL: QLVLTQSPSASASLGASVNLTCTLSSGHNSYAIAWHQQQPEKGPRYLMSLNSDGSHTKGDGIPDRFSGSSSGAERFLTISSLQSEDEADYYCQTWDTGIRVFGGGTRLTVL
notes: copies: 2 + 2
With B1 the Kd [1] was 118 nM, the koff [1] was 0.00418 s⁻¹ and the kon [1] was 35500 M⁻¹ s⁻¹. It also gave a Kd [2] of 185 nM, a koff [2] of 0.00569 s⁻¹ and a kon [2] of 30700 M⁻¹ s⁻¹. For the same binder, the Kd [3] was 11.4 nM, the koff [3] was 0.000528 s⁻¹ and the kon [3] was 46300 M⁻¹ s⁻¹. It also gave a Kd [4] of 47 nM, a koff [4] of 0.00141 s⁻¹ and a kon [4] of 30000 M⁻¹ s⁻¹. It also gave a Kd [5] of 230 nM, a koff [5] of 0.00301 s⁻¹ and a kon [5] of 13100 M⁻¹ s⁻¹. It also gave a Kd [6] of 14.3 nM, a koff [6] of 0.000514 s⁻¹ and a kon [6] of 36000 M⁻¹ s⁻¹.

B2: C1533 IgG (antibody, V domains shown)
VH: QVQLVQSGAEVKKPGSSVKVSCKTSGVIFSRNAFSWVRQAPGQGLEWMGRIIPFLDVTNSAQEFQGRVTLNADKSTSTVYMELSSLRSEDTAIYYCARHNGDPYDFWSGYNTWAGGLDVWGQGTTVTVSS
VL: QSVLTQPPSASGTPGQRVTISCSGSGSNIGSNAVNWYQQLPGTAPKLLIYNQNQRPSGVPDRFSGSKSGTSASLAIGGLQSEDEADYYCATWDDNLSGLVFGGGTKLTVL
notes: copies: 2 + 2
In the case of B2, the Kd [5] is reported as 24.9 nM, the koff [5] is reported as 0.00107 s⁻¹ and the kon [5] is reported as 43100 M⁻¹ s⁻¹.

B3: C1596 IgG (antibody, V domains shown)
VH: QVQLVQSGAEVKKPGSSVKVSCKASGGTFINYAVTWVRQAPGQGLEWMGGIIPILGIPNYAQKFQGRVTITADKSTSTAYMELSSLRSEDTAVYYCARVPQAGAAQGHYYYYYGMDVWGQGTTVTVSS
VL: not shown
notes: copies: 2 + 2
Work on B3 yielded a Kd [1] of 88.2 nM, a Kd [2] of 607 nM and a Kd [3] of 674 nM. It also gave a Kd [7] of 529 nM, a Kd [4] of 124 nM and a Kd [5] of 282 nM. It also gave a Kd [6] of 685 nM, a Kd [8] of 591 nM and a Kd [9] of 410 nM.

B4: C952 IgG (antibody, V domains shown)
VH: EVQLVQSGAEVKKPGESLTISCKDSGNSFTIYWIGWVRQMPGKGLEWMGMIYPGDSGTRYSPSFEGQVTISADESINTAYLQWRSLKASDTAMYYCVRGIAVDWYFDLWGRGTLVTVSS
VL: QSVLTQPPSVSGAPGQRVTISCTGSSSNIGAGFDVHWYQQLPGTAPKLLIYGNNNRPSGVPDRFSGSKSATSASLAITGLQAEDEADYYCQSSDSSLSGLYVFGTGTNVIVL
notes: copies: 2 + 2
With B4 the Kd [10] was 939000 nM, the koff [10] was 0.037 s⁻¹ and the kon [10] was 39.4 M⁻¹ s⁻¹. The Kd [11] was 8.22 nM, the koff [11] was 0.00358 s⁻¹ and the kon [11] was 435000 M⁻¹ s⁻¹. For the same binder, the Kd [12] was 99.3 nM, the koff [12] was 0.0046 s⁻¹ and the kon [12] was 46300 M⁻¹ s⁻¹. It also gave a Kd [13] of 180000 nM, a koff [13] of 0.289 s⁻¹ and a kon [13] of 1600 M⁻¹ s⁻¹.
